Data taken from the Human Domainome abundance scans (Beltran et al. 2025).
± gives the uncertainty stated by the source.

B1: TOX high mobility group box family member 3, residues 256 to 323; numbered along this chain, O15405 (parent)
chain: QKPVSAYALFFRDTQAAIKGQNPNATFGEVSKIVASMWDSLGEEQKQVYKRKTEAAKKEYLKALAAYR

Variants of: B1
Test: abundance fitness (aPCA) (normalised: wild type 0, dead -1); higher = more abundant; growth selection in yeast, the domain comes from the species named
Settings: Homo sapiens

| Variant | abundance fitness |
| --- | --- |
| QKPVSAYALFFRDTQAAIKGQNPNATFGEVSKIVASMWDSLGEEQKQVYARKTEAAKKEYLKALAAYR [K50A] | -0.15 ± 0.24 |
| QKPVSAYALFFRDTQAAIKGQNPNATFGEVSKIVASMWDSLGEEQKQVYSRKTEAAKKEYLKALAAYR [K50S] | -0.181 ± 0.36 |
| QKPVSAYALFFRDTQAAIKGQNPNATFGEVSKIVASMWDSLGEEQKQVYRRKTEAAKKEYLKALAAYR [K50R] | 0.079 ± 0.25 |
| QKPVSAYALFFRDTQAAIKGQNPNATFGEVSKIVASMWDSLGEEQKTVYKRKTEAAKKEYLKALAAYR [Q47T] | -0.42 ± 0.14 |
| QKPVSAYALFFRDTQAAIKGQNPNATFGEVSKIVASMWDSLGEEQKSVYKRKTEAAKKEYLKALAAYR [Q47S] | -0.079 ± 0.054 |
| QKPVSAYALFFRDTQAAIKGQNPNATFGEVSKIVASMWDSLGEEQKYVYKRKTEAAKKEYLKALAAYR [Q47Y] | 0.029 ± 0.13 |
| QKPVSAYALFFRDTQAAIKGQNPNATFGEVSKIVASMWDSLGEEQKPVYKRKTEAAKKEYLKALAAYR [Q47P] | -0.812 ± 0.12 |
| QKPVSAYALFFRDTQAAIKGQNPNATFGEVSKIVASMWDSLGEEQKVVYKRKTEAAKKEYLKALAAYR [Q47V] | -0.033 ± 0.086 |
| QKPVSAYALFFRDTQAAIKGQNPNATFGEVSKIVASMWDSLGEEQKRVYKRKTEAAKKEYLKALAAYR [Q47R] | -0.032 ± 0.037 |
| QKPVSAYALFFRDTQAAIKGQNPNATFGEVSKIVASMWDSLGEEQKNVYKRKTEAAKKEYLKALAAYR [Q47N] | 0.102 ± 0.095 |
| QKPVSAYALFFRDTQAAIKGQNPNATFGEVSKIVASMWDSLGEEQKQVYKSKTEAAKKEYLKALAAYR [R51S] | -0.02 ± 0.044 |
| QKPVSAYALFFRDTQAAIKGQNPNATFGEVSKIVASMWDSLGEEQKQVYKWKTEAAKKEYLKALAAYR [R51W] | -0.079 ± 0.057 |
| QKPVSAYALFFRDTQAAIKGQNPNATFGEVSKIVASMWDSLGEEQKQVYKHKTEAAKKEYLKALAAYR [R51H] | -0.018 ± 0.054 |
| QKPVSAYALFFRDTQAAIKGQNPNATFGEVSKIVASMWDSLGEEQKQVYKYKTEAAKKEYLKALAAYR [R51Y] | -0.199 ± 0.096 |
| QKPVSAYALFFRDTQAAIKGQNPNATFGEVSKIVASMWDSLGEEQKQVYKQKTEAAKKEYLKALAAYR [R51Q] | -0.041 ± 0.058 |
| QKPVSAYALFFRDTQAAIKGQNPNATFGEVSKIVASMWDSLGEEQKQVYKKKTEAAKKEYLKALAAYR [R51K] | 0.05 ± 0.084 |
| QKPVSAYALFFRDTQAAIKGQNPNATFGEVSKIVASMWDSLGEEQKQVYKGKTEAAKKEYLKALAAYR [R51G] | -0.032 ± 0.049 |
| QKPVSAYALFFRDTQAAIKGQNPNATFGEVSKIVASMWDSLGEEQKQVYKMKTEAAKKEYLKALAAYR [R51M] | -0.069 ± 0.056 |
| QKPVSAYALFFRDTQAAIKGQNPNATFGEVSKIVASMWDSLGEEQKQVYKIKTEAAKKEYLKALAAYR [R51I] | -0.175 ± 0.082 |
| QKPVSAYALFFRDTQAAIKGQNPNATFGEVSKIVASMWDSLGEEQKQVYKAKTEAAKKEYLKALAAYR [R51A] | -0.031 ± 0.049 |

| Variant | abundance fitness |
| --- | --- |
| QKPVSAYALFFRDTQAAIKGQNPNATFGEVSKIVASMWDSLGEEQKQVYKTKTEAAKKEYLKALAAYR [R51T] | 0.042 ± 0.047 |
| QKPVSAYALFFRDTQAAIKGQNPNATFGEVSKIVASMWDSLGEEQKQVYKLKTEAAKKEYLKALAAYR [R51L] | 0.021 ± 0.04 |
| QKPVSAYALFFRDTQAAIKGQNPNATFGEVSKIVASMWDSLGEEQKQVYKPKTEAAKKEYLKALAAYR [R51P] | -0.225 ± 0.059 |
| QKPVSAYALFFRDTQAAIKGQNPNATFGEVSKIVASMWDSLGEEQKQVYKEKTEAAKKEYLKALAAYR [R51E] | 0.222 ± 0.079 |
| QKPVSAYALFFRDTQAAIKGQNPNATFGEVSKIVASMWDSLGEEQKQVYKVKTEAAKKEYLKALAAYR [R51V] | -0.072 ± 0.055 |
| QKPVSAYALFFRDTQAAIKGQNPNATFGEVSKIVASMWDSLGEEQKQVYKNKTEAAKKEYLKALAAYR [R51N] | -0.017 ± 0.052 |
| QKPVSAYALFFRDTQAAIKGQNPNATFGEVSKIVASMWDSLGEEQKQVYKFKTEAAKKEYLKALAAYR [R51F] | -0.256 ± 0.066 |
| QKPVSAYALFFRDTQAAIKGQNPNATFGEVSKIVASMWDSLGEEQKQVYKDKTEAAKKEYLKALAAYR [R51D] | 0.101 ± 0.083 |
| QKPVSAYALFFRDTQAAIKGQNPNATFGEVSKIVASMWDSLGEEQKQGYKRKTEAAKKEYLKALAAYR [V48G] | 0.505 ± 0.26 |
| QKPVSAYALFFRDTQAAIKGQNPNATFGEVSKIVASMWDSLGEEQKQIYKRKTEAAKKEYLKALAAYR [V48I] | -0.133 ± 0.19 |
| QKPVSAYALFFRDTQAAIKGQNPNATFGEVSKIVASMWDSLGEEQKQVYKRNTEAAKKEYLKALAAYR [K52N] | -0.133 ± 0.067 |
| QKPVSAYALFFRDTQAAIKGQNPNATFGEVSKIVASMWDSLGEEQKQVYKRITEAAKKEYLKALAAYR [K52I] | -0.652 ± 0.081 |
| QKPVSAYALFFRDTQAAIKGQNPNATFGEVSKIVASMWDSLGEEQKQVYKRFTEAAKKEYLKALAAYR [K52F] | -0.93 ± 0.17 |
| QKPVSAYALFFRDTQAAIKGQNPNATFGEVSKIVASMWDSLGEEQKQVYKRDTEAAKKEYLKALAAYR [K52D] | -0.404 ± 0.078 |
| QKPVSAYALFFRDTQAAIKGQNPNATFGEVSKIVASMWDSLGEEQKQVYKRMTEAAKKEYLKALAAYR [K52M] | -0.373 ± 0.074 |
| QKPVSAYALFFRDTQAAIKGQNPNATFGEVSKIVASMWDSLGEEQKQVYKRATEAAKKEYLKALAAYR [K52A] | -0.368 ± 0.055 |
| QKPVSAYALFFRDTQAAIKGQNPNATFGEVSKIVASMWDSLGEEQKQVYKRETEAAKKEYLKALAAYR [K52E] | -0.219 ± 0.07 |
| QKPVSAYALFFRDTQAAIKGQNPNATFGEVSKIVASMWDSLGEEQKQVYKRGTEAAKKEYLKALAAYR [K52G] | -0.474 ± 0.072 |
| QKPVSAYALFFRDTQAAIKGQNPNATFGEVSKIVASMWDSLGEEQKQVYKRCTEAAKKEYLKALAAYR [K52C] | -0.547 ± 0.086 |
| QKPVSAYALFFRDTQAAIKGQNPNATFGEVSKIVASMWDSLGEEQKQVYKRHTEAAKKEYLKALAAYR [K52H] | -0.272 ± 0.066 |
